# Measured values published in patent US20180280504A1, “GLYCAN-INTERACTING COMPOUNDS AND METHODS OF USE” (SIAMAB THERAPEUTICS, INC., priority 2014, published 2018).
# Experiments:
# [1] = Glycan array, 9-O-acetylated AcSTn; format: binding; details: glycan microarray, Cy3 anti-mouse IgG
# Procedure: (§1) Optimized glycan arrays comprise 71 chemically synthesized and well-defined glycans, most of which comprise Neu5Ac and Neu5Gc glycan pairs.
# (§2) 300 ml of epoxy blocking buffer is prepared by combining 15 ml of 2 M Tris buffer (pH 8) with 0.9 ml of 16.6 M ethanolamine and 284.1 ml of distilled water. The solution was brought to a final pH of 9.0 with HCl. The solution is filtered using a 0.2 μM nitrocellulose membrane. The epoxy buffer solution as well as 1 L of distilled water are pre-warmed to 50° C. Glass slides are arranged in a slide holder and quickly submerged in a staining tub with the warmed epoxy blocking buffer. Slides are incubated in the epoxy blocking buffer for 1 hour at 50° C. with periodic shaking to deactivate epoxy binding sites. Next, slides are rinsed and blocked with PBS with 1% OVA at 25° C. for one hour. Serum samples with polyclonal antibodies (1:1000) or purified monoclonal antibodies (1 ug/mL), are diluted in PBS with 1% OVA and added to the glycan array for one hour at 25° C. After extensive washing, binding of antibodies are detected by incubating glycan microarray slides with Cy3-conjugated anti-mouse IgG (Jackson Immunoresearch, West Grove, Pa.) for one hour. Slides are then washed extensively, dried and scanned with a Genepix 4000B scanner (Laser at 100%; gain at 350; 10 μm pixels). […]
# [2] = Glycan array, Tn and other glycans; format: binding; details: glycan microarray
# Procedure: as §1, §2
# [3] = Glycan array, 9-O-acetylated GcSTn; format: binding; details: glycan microarray, Cy3 anti-mouse IgG
# Procedure: as §1, §2
# [4] = PAA-glycan ELISA, GcSTn-PAA; format: binding; details: 200 ng/well PAA antigen; 1:5 dilutions from 1 μM
# Procedure: 18D2 and 18C7 antibodies were further characterized by ELISA comprising antigens other than BSM. ELISAs were carried out according to Example 2, with the exception that ELISA plates were coated with biotinylated polyacrylamide (PAA) particles comprising either AcSTn (AcSTn-PAA), GcSTn (GcSTn-PAA) or Tn (Tn-PAA) as antigens. These particles present the antigens in a multivalent format. Briefly, 96-well ELISA plates were coated with 200 ng/well of each PAA antigen and blocked with PBS with 1% OVA. Antibodies were serially diluted at 1:5 in PBS with 1% OVA using an initial concentration of 1 μM. After blocking, antibodies were added to the plates and plates were incubated for 1.5 hours at room temperature. Binding of anti-STn antibodies was detected using a goat anti-mouse IgG-HRP conjugated antibody (Jackson Immunoresearch Laboratories, West Grove, Pa.). The reaction was developed by addition of HRP substrate and hydrogen peroxide. The reaction was then stopped by the addition of sulfuric acid (1.6 M). Optical densities were measured at 490 nm. A dose-response curve was generated using readings at each concentration tested and a non-linear regression curve was generated with four-parameter modeling to determine EC50 values for each antibody.
# [5] = E3-STn allograft model, second round study, average body weight
# Procedure: 50 female Balb/cmice were inoculated with E3-STn cells to cause STn-expressing tumor formation when they were 5 weeks old. Mice were housed in individually ventilated microisolator cages, and maintained under pathogen-free conditions with irradiated feed and autoclaved water. […] Beginning on the first day of the study, body weight and tumor volumes were recorded twice weekly. 33 mice with mean tumor volume between 100 and 150 mm^3 were selected for randomization.
# The average weight of mice in each treatment group was also determined on days 1, 5, 8, 12, 15,19, 22, 26, 29, 33, 36, 40, 43, 47 and 50 following the first administration of each test article (see the following Table). The percent gain or loss over initial weight values is listed in parentheses.
# [6] = tested on: COLO-205 Human Colon Adenocarcinoma Tumor Xenograft; test: COLO-205 xenograft model, clinical observations; format: in vivo, mouse; details: 5 mg/kg i.p. once weekly
# Procedure: Animals were inoculated in the subcutaneous right flank with 5×10^6 colon adenocarcinoma tumor cells (COLO-205) in matrigel, mean tumor size was 175-225 mm^3 at study initiation. Animals were given either vehicle or one of the antibody drug conjugates (5 mg/kg) by intraperitoneal injection once weekly. Tumor volume and percent body weight change were determined once weekly until study termination. The study was terminated when the tumor in the vehicle control animal reached a mean tumor weight >1500 mm^3. SE refers to “standard error.”
# Clinical observations of tumor shape, size and disposition were noted throughout the study.
# [7] = tested on: MDA-MB-231-STn Human Breast Tumor Xenograft; test: MDA-MB-231-STn human breast cancer xenograft model, tumor volume; format: in vivo, mouse; details: 5 mg/kg i.p. once weekly
# Source text: To evaluate antibody drug conjugates (ADCs) as single agents in an MDA-MB-231-STn Human Breast Tumor Xenograft model, 40 ICR SCID female mice age range 6-8 weeks were randomly separated into four separate groups, one vehicle control and three ADC treatments, then maintained individually with food/water ad libitum (see the following Table).
# Animals were inoculated in the subcutaneous right flank with 5×10^6 breast tumor cells (MDA-MB-231-STn) in matrigel, mean tumor size was 175-225 mm^3 at study initiation. Animals were given either vehicle or antibody drug conjugates (5 mg/kg) by intraperitoneal injection once weekly. Tumor volume and percent body weight change were determined once weekly until study termination. The study was terminated when the tumor in the vehicle control animal reached a mean tumor weight ≥1500 mm^3. SE refers to “standard error.”
molecule,measurement,setting,value
"18C7: anti-STn mouse monoclonal, IgG2c κ, from mouse #4436; VH SEQ ID NO: 4, VL SEQ ID NO: 5 (antibody, V domains shown) VH: QVTLKESGPGILQPSQTLSLTCSFSGFSLSTFGMGVGWIRQPSGKGLEWLAHIWWDDDKYYNPALKSRLTISKDTSKNQVFLKIANVDTADTATYYCARIAYYYGSERDYWGQGTTLTVSS VL: QIVLTQSPAIMSASPGEKVTMTCSASSSISYMHWYHQKPGTSPKRWIYDTSKLASGVPARFSGSGSGTSYSLTISSMEAEDAATYYCHQRSSYTFGGGTKLEIKR","mean fluorescence intensity, Neu5,9Ac2-α2,6-GalNAc",[1],"about 4,500"
same,binding to Tn antigen or other glycans,[2],No binding
same,"mean fluorescence intensity, Neu5,9Ac5Gc-α2,6-GalNAc",[3],"about 2,000"
same,EC50,[4],2.59 nM
"7G9: anti-STn mouse monoclonal, IgG2b κ, from mouse #4407; VH SEQ ID NO: 12, VL SEQ ID NO: 9 (antibody, V domains shown) VH: QVQLKESGPGLVAPSQNLSITCTVSGFSLTSYGVNWVRQPPGKGLEWLGVIWGDGSTNYHSALISRLIISKENSKSQVFLKLNSLQTNDTATYYCTKGFVYWGQGTLVTVSA VL: QIVLTQSPAIMSASPGEKVTMTCSASSSVSYMHWYQQKSGTSPKRWIFDTSKLASGVPARFSGSGSGTSYSLTISSMEAEDAATYYCQQWSSNLLTFGAGTKLELK",Average Weight,[5]; day 1 of study,18.3 g
same,Average Weight,[5]; day 5 of study,18.7 g
same,percent gain or loss over initial weight,[5]; day 5 of study,(2.4) %
same,Average Weight,[5]; day 8 of study,19.4 g
same,percent gain or loss over initial weight,[5]; day 8 of study,(6.5) %
same,Average Weight,[5]; day 12 of study,20.1 g
same,percent gain or loss over initial weight,[5]; day 12 of study,(10.1) %
same,Average Weight,[5]; day 15 of study,20.4 g
same,percent gain or loss over initial weight,[5]; day 15 of study,(12.0) %
same,Average Weight,[5]; day 19 of study,20.9 g
same,percent gain or loss over initial weight,[5]; day 19 of study,(14.3) %
same,Average Weight,[5]; day 22 of study,20.8 g
same,percent gain or loss over initial weight,[5]; day 22 of study,(14.1) %
same,Average Weight,[5]; day 26 of study,21.5 g
same,percent gain or loss over initial weight,[5]; day 26 of study,(17.8) %
same,Average Weight,[5]; day 29 of study,22.1 g
same,percent gain or loss over initial weight,[5]; day 29 of study,(21.1) %
same,Average Weight,[5]; day 33 of study,22.2 g
same,percent gain or loss over initial weight,[5]; day 33 of study,(21.4) %
same,Average Weight,[5]; day 36 of study,22.1 g
same,percent gain or loss over initial weight,[5]; day 36 of study,(21.0) %
same,Average Weight,[5]; day 40 of study,22.8 g
same,percent gain or loss over initial weight,[5]; day 40 of study,(25.0) %
same,Average Weight,[5]; day 43 of study,22.9 g
same,percent gain or loss over initial weight,[5]; day 43 of study,(25.4) %
same,Average Weight,[5]; day 47 of study,22.8 g
same,percent gain or loss over initial weight,[5]; day 47 of study,(25.0) %
same,Average Weight,[5]; day 50 of study,23.8 g
same,percent gain or loss over initial weight,[5]; day 50 of study,(30.2) %
same,percent gain in weight as compared to vehicle control,[5]; second round study,higher percent gain in weight
"S3F: 3F1 variable domains combined with IgG2a constant domains; heavy chain SEQ ID NO: 63, light chain SEQ ID NO: 64 (antibody) heavy: QVQLQQSDAELVKPGASVKISCKASGYTFTDHAIHWVKQKPEQGLDWIGYISPGNGDIKYNEKFKDKVTLTADKSSSTACMHLNSLTSEDSAVYFCKRSLLALDYWGQGTTLTVSSAKTTAPSVYPLAPVCGDTTGSSVTLGCLVKGYFPEPVTLTWNSGSLSSGVHTFPAVLQSDLYTLSSSVTVTSSTWPSQSITCNVAHPASSTKVDKKIEPRGPTIKPCPPCKCPAPNLLGGPSVFIFPPKIKDVLMISLSPIVTCVVVDVSEDDPDVQISWFVNNVEVHTAQTQTHREDYNSTLRVVSALPIQHQDWMSGKEFKCKVNNKDLPAPIERTISKPKGSVRAPQVYVLPPPEEEMTKKQVTLTCMVTDFMPEDIYVEWTNNGKTELNYKNTEPVLDSDGSYFMYSKLRVEKKNWVERNSYSCSVVHEGLHNHHTTKSFSRTPGK light: DIVMTQSHKFMSTSVGDRVSITCKASQDVGTNIAWYQQKPGRSPKVLIYSASTRHTGVPDRFTGSGSGTDFTLTISNVQSEDLTDYFCQQYSSFPLTFGVGTKLELKRADAAPTVSIFPPSSEQLTSGGASVVCFLNNFYPKDINVKWKIDGSERQNGVLNSWTDQDSKDSTYSMSSTLTLTKDEYERHNSYTCEATHKTSTSPIVKSFNRNEC",clinical observations of tumors and signs of illness,[6],necrosing tumors ranging in severity from slight to severe
same,total tumor volume course,[7]; ICR SCID mice,increased at all time points
same,Tumor Volume,[7]; day 1,178.6 mm^3
same,Tumor Volume,[7]; day 4,194.3 mm^3
same,Tumor Volume,[7]; day 8,244.9 mm^3
same,Tumor Volume,[7]; day 10,301.0 mm^3
same,Tumor Volume,[7]; day 15,445.1 mm^3
same,Tumor Volume,[7]; day 18,609.7 mm^3
same,Tumor Volume,[7]; day 23,775.4 mm^3
same,Tumor Volume,[7]; day 25,972.7 mm^3
